{
  "source": "IntAct's records for PubMed 20802461",
  "parents": {"B1": {"name": "Mitogen-activated protein kinase ERK-A (Drosophila melanogaster (Fruit fly)), P40417 (parent)", "chain": "MEEFNSSGSVVNGTGSTEVPQSNAEVIRGQIFEVGPRYIKLAYIGEGAYGMVVSADDTLTNQRVAIKKISPFEHQTYCQRTLREITILTRFKHENIIDIRDILRVDSIDQMRDVYIVQCLMETDLYKLLKTQRLSNDHICYFLYQILRGLKYIHSANVLHRDLKPSNLLLNKTCDLKICDFGLARIADPEHDHTGFLTEYVATRWYRAPEIMLNSKGYTKSIDIWSVGCILAEMLSNRPIFPGKHYLDQLNHILGVLGSPSRDDLECIINEKARNYLESLPFKPNVPWAKLFPNADALALDLLGKMLTFNPHKRIPVEEALAHPYLEQYYDPGDEPVAEVPFRINMENDDISRDALKSLIFEETLKFKERQPDNAP"}},
  "conditions_in_all_cases": "with arrb2_human ARRB2, P32121",
  "key": {"[1]": {"variants_of": "B1"}, "[2]": {"variants_of": "B1", "remark": "listed apart in the source"}, "[3]": {"variants_of": "B1", "remark": "listed apart in the source"}},
  "data": [
    {"variant": "T198E", "values": [
      {"measurement": "effect of a mutation on the interaction", "setting": "[1]", "value": "disrupting interaction"},
      {"measurement": "effect of a mutation on the interaction", "setting": "[2]", "value": "disrupting interaction strength"}
    ]},
    {"variant": "Y200E", "values": [
      {"measurement": "effect of a mutation on the interaction", "setting": "[1]", "value": "disrupting interaction"},
      {"measurement": "effect of a mutation on the interaction", "setting": "[3]", "value": "decreasing interaction"}
    ]}
  ]
}
